From paper PMC9246713

Biological target: OmpK36WT (wild type OmpK36 porin trimer of K. pneumoniae ATCC 43816) (Klebsiella pneumoniae)
Experiment: cryo-EM structure; OmpK36-TraN sample 0.33 mg ml^-1 diluted 1:6 in buffer A (50 mM NaCl, 10 mM HEPES pH 7.0, 0.03% DDM); graphene oxide-coated grids; Titan Krios 300 keV; 2.6 Å

Row | Substance | stoichiometry N | occupancy (TraN molecules for each OmpK36 trimer) (molecule for each OmpK36 trimer)
1 | OmpK36WT (wild type OmpK36 porin trimer of K. pneumoniae ATCC 43816) (natural protein) | 3 | –
2 | TraN from the plasmid pKpQIL (mature TraN, D28 to Q651) (natural protein) | – | < 1
